Laboratory results as given in paper doi:10.1101/2023.03.30.534840.
Several values for one entry are separate records, joined by “and”; a condition that tells them apart may be missing. Equal values may be shown once.

Experiments:
[1] = molecular target: His-MeSufC (expressed alone in E. coli) (Monocercomonoides exilis); experiment: SEC
[2] = molecular target: MeSufBC complex (His-MeSufB with MeSufC-HA) (Monocercomonoides exilis); experiment: SEC
[3] = molecular target: MeSufBC complex (His-MeSufB with MeSufC-HA) (Monocercomonoides exilis); experiment: mass photometry
[4] = molecular target: MeSufBC complex (His-MeSufB with MeSufC-HA) (Monocercomonoides exilis); experiment: mass photometry; remark: listed apart in the source
[5] = molecular target: MeSufBC complex (His-MeSufB with MeSufC-HA) (Monocercomonoides exilis); experiment: SEC; remark: listed apart in the source
[6] = molecular target: His-MeSufB (Monocercomonoides exilis); experiment: mass photometry
[7] = molecular target: T25-MeSufB (Monocercomonoides exilis); experiment: two-hybrid
[8] = molecular target: T25-MeSufC (Monocercomonoides exilis); experiment: two-hybrid

## His-MeSufC (expressed alone in E. coli) (enzyme)
[1]
  stoichiometry N: 2

## MeSufBC complex (His-MeSufB with MeSufC-HA)
[2]
  stoichiometry N (MeSufBC units): 4
[3]
  stoichiometry N (MeSufBC units): 2
[4]
  stoichiometry N (MeSufBC units): 2
[5]
  stoichiometry N (MeSufBC units): 2 and 4

## MeSufC-HA (enzyme)
[6]
  stoichiometry N (MeSufC per MeSufB): 1

## MeSufC-T18 (natural protein)
[7]
  β-galactosidase activity (BACTH): 670 Miller units

B1: EcSufC-T18 (natural protein)
chain: MLSIKDLHVSVEDKAILRGLSLDVHPGEVHAIMGPNGSGKSTLSATLAGREDYEVTGGTVEFKGKDLLALSPEDRAGEGIFMAFQYPVEIPGVSNQFFLQTALNAVRSYRGQETLDRFDFQDLMEEKIALLKMPEDLLTRSVNVGFSGGEKKRNDILQMAVLEPELCILDESDSGLDIDALKVVADGVNSLRDGKRSFIIVTHYQRILDYIKPDYVHVLYQGRIVKSGDFTLVKQLEEQGYGWLTEQQ
[7]
  β-galactosidase activity (BACTH): 1040 Miller units

B2: EcSufB-T18 (natural protein)
chain: MSRNTEATDDVKTWTGGPLNYKEGFFTQLATDELAKGINEEVVRAISAKRNEPEWMLEFRLNAYRAWLEMEEPHWLKAHYDKLNYQDYSYYSAPSCGNCDDTCASEPGAVQQTGANAFLSKEVEAAFEQLGVPVREGKEVAVDAIFDSVSVATTYREKLAEQGIIFCSFGEAIHDHPELVRKYLGTVVPGNDNFFAALNAAVASDGTFIYVPKGVRCPMELSTYFRINAEKTGQFERTILVADEDSYVSYIEGCSAPVRDSYQLHAAVVEVIIHKNAEVKYSTVQNWFPGDNNTGGILNFVTKRALCEGENSKMSWTQSETGSAITWKYPSCILRGDNSIGEFYSVALTSGHQQADTGTKMIHIGKNTKSTIISKGISAGHSQNSYRGLVKIMPTATNARNFTQCDSMLIGANCGAHTFPYVECRNNSAQLEHEATTSRIGEDQLFYCLQRGISEEDAISMIVNGFCKDVFSELPLEFAVEAQKLLAISLEHSVG
[8]
  β-galactosidase activity (BACTH): 556 Miller units
